Data as given in paper PMC7901023.

Target: FOXA1-ΔHx (UniProt P35582)
Assay: pull-down

- pull-down relative to wild-type FOXA1 (fraction of wild type): 0.33
Substance: H3/H4 tetramers (from UniProt P84233;P62799) (complex)
